Laboratory results as given in the supplement of paper PMC9170038.

Tested on: MS2 coat protein
Assay: apparent KD of MS2 coat protein; designed switch direction (-1 OFF switch, 1 ON switch): -1; higher = weaker reporter binding
Method in brief: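 The reported apparent KD is a per-design median over clusters, from curve fits of normalised cluster fluorescence. Protein titrations used SNAP-549-labelled MS2 coat protein, doubled from 0.7 or 1.5 nM to 3 µM, in Tris-HCl pH 7.5 buffer with KCl, MgCl2, BSA, DTT, tRNA and Tween-20, with no input, 200 uM small-molecule ligand, or an oligonucleotide input. The RNA switches were transcribed on Illumina chips by stalled E. coli RNA polymerase.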

[1] = Eterna round: R95, input ligand: microRNA oligo, concentration not stated
[2] = input ligand: microRNA oligo, concentration not stated
[3] = Eterna round: R95, input ligand: FMN 200 uM
[4] = Eterna round: R95, input ligand: none

“CAGCUGAAUGUGAGGAUAUUACGAGCCUCGGCUCGUGAGAAGGCACAUGAGGAUCACCCAUGUCUCAACAGCUG [BmEx4/2-B2] (Eterna round: R97, puzzle: Brourd's mod of Exclusion 4)” was tested, and the “apparent KD of MS2 coat protein” value (input ligand: FMN 200 uM) was 0.759 µM and the “apparent KD of MS2 coat protein” value (input ligand: none) was 0.0362 µM.
In the case of “UGAUCACAUGAGGAUCACCCAUGUCAGGAUAUCGUCACUGGAGCCUCGGCUCCAGUGACGAGAAGGGACAUAAU [E1/3-A2] (Eterna round: R97, puzzle: Exclusion 1)”, the “apparent KD of MS2 coat protein” value (input ligand: FMN 200 uM) is reported as 0.137 µM and the “apparent KD of MS2 coat protein” value (input ligand: none) is reported as 0.253 µM.
In the case of “CAGUACUGAGGAUAUACAUGAGGAUCACCCAUGUGGGAGAUACUAGUGAGGUCGAUUAGUAGAAGGCAGUACUG [Mat X3R4 m21] (Eterna round: R97, puzzle: Exclusion 3)”, the “apparent KD of MS2 coat protein” value (input ligand: FMN 200 uM) is reported as 0.903 µM and the “apparent KD of MS2 coat protein” value (input ligand: none) is reported as 0.184 µM.
In the case of “AUAUUAAUAGUAAGGAUAUGCGUAUAUAUAGUUAUGCAGAAGGUACAUGAGGAUCACCCAUGUAUUAAUGUGUA [LRO-BmodExc4-03-Oppy's Opus] (Eterna round: R97, puzzle: Brourd's mod of Exclusion 4)”, the “apparent KD of MS2 coat protein” value (input ligand: FMN 200 uM) is reported as 0.0149 µM and the “apparent KD of MS2 coat protein” value (input ligand: none) is reported as 0.0143 µM.
In the case of “CCUCUACAUGAGGAUCACCCAUGUGAGGAUAUCAGUGCAAAGGGCACGUAUUAAAACGUGAGAAGGCACAUGGG [EX1 A.17] (Eterna round: R97, puzzle: Exclusion 1)”, the “apparent KD of MS2 coat protein” value (input ligand: FMN 200 uM) is reported as 0.0889 µM and the “apparent KD of MS2 coat protein” value (input ligand: none) is reported as 0.135 µM.
“GGCUAGUGAGGAUAUACGUGCACUCCUCAGUCGCCAGUCGGACAUGAGGAUCACCCAUGUAGAAGGUAUCGGCA [Qusoceus] (puzzle: Exclusion 2)” was tested, and the “apparent KD of MS2 coat protein” value [1] was 0.024 µM.
For “AUUAUUUAAGUCAGGAUAUCGUAUUUAUUUAAAUACGAGAAGGGACAUGAGGAUCACCCAUGUAAUAAAUUUUU [JMFs Solution 3] (puzzle: Brourd's mod of Exclusion 4)”, the “apparent KD of MS2 coat protein” value [1] was 0.0172 µM.
For “UAUAUAUAGUAAGGAUAUGUAAUAAUUUUAUAAACAGAAGGUACUGACAUGAGGAUCACCCAUGUUUUAGUGUGGGCAUGUAGA [JMF's solution 30] (Eterna round: R96, puzzle: Exclusion NG 1)”, the “apparent KD of MS2 coat protein” value [2] was 0.0732 µM.
For “GAGGAGGUAGGAUAUACGAUAAUAUAGGGUAGAUAUAUAACACAUGAGGAUCACCCAUGUAGAAGGACCAGGAG [Mat - Exclusion 2 - Mod of my Tesla design - D64] (puzzle: Exclusion 2)”, the “apparent KD of MS2 coat protein” value [1] was 0.0367 µM.
With “UUAUUACGAGGAUAUCGUUUUUAUCACAUGAGGAUCACCCAUGUUGUUUAUGUUUCGUUUCGAGAAGGCGUUUGUU [JR_E5_Sub066] (puzzle: Exclusion 5)” the “apparent KD of MS2 coat protein” value [1] was 0.0244 µM.
“AGUCAAGAUGAGGAUAUCCGUGUAACAAACGCAGGAGAAGGCGUCACAUGAGGAUCACCCAUGUUGCCUCUAAG [Eternabot (L1) Solution 92] (Eterna round: R97, puzzle: Exclusion 6)” was tested, and the “apparent KD of MS2 coat protein” value (input ligand: FMN 200 uM) was 0.0459 µM and the “apparent KD of MS2 coat protein” value (input ligand: none) was 0.0581 µM.
For “UUGUUGUAUGUAGGAUAUGCAUAUUAUUAUUAUGCAGAAGGACAUGAGGAUCACCCAUGUAUGUUAUUAUUAUAUGUUAUAUGU [Title] (Eterna round: R96, puzzle: Exclusion NG 1)”, the “apparent KD of MS2 coat protein” value [2] was 0.0256 µM.
With “GCAUGUUAUGUCAGGAUAUACCUAUGGAUACAUAGGUAGAAGGGACAUGAGGAUCACCCAUGUCCUAAUCAUGC [Fiskers BMX 4 - 23] (puzzle: Brourd's mod of Exclusion 4)” the “apparent KD of MS2 coat protein” value [1] was 0.0125 µM.
For “CCUCAACAGUAGGAUAUCAUCAAACUAUUGUGAUGAGAAGGACUGACAUGAGGAUCACCCAUGUUGACGUGAUA [Exclusion 6 - 6:b] (puzzle: Exclusion 6)”, the “apparent KD of MS2 coat protein” value [1] was 0.0478 µM.
With “UUUUUUUUUGUGAGGAUAUACUUUUUUUUUUUUUUGUAGAAGGCACAUGAGGAUCACCCAUGUUUUUUUUUCUC [JR_BME4_Sub029] (puzzle: Brourd's mod of Exclusion 4)” the “apparent KD of MS2 coat protein” value [1] was 0.0132 µM.
With “AAUUAAGCAAGCAGAUCCCACAUGAGGAUCACCCAUGUGCUCGUCUUAUAAGGUACUGUGACAAAAGUCACGGUACC [Mat - Sensor, turn-off var - Eli Mod - D73] (Eterna round: R97, puzzle: Sensor, turn-off variant 1)” the “apparent KD of MS2 coat protein” value (input ligand: FMN 200 uM) was 0.108 µM and the “apparent KD of MS2 coat protein” value (input ligand: none) was 0.117 µM.
For “ACUUAUUGAGGAUAUACAGAUUAUUACAUGAGGAUCACCCAUGUUCUUCAAUGUAUAUAUGUAGAAGGCAGAAGAU [Mat - Exclusion 5 - JL Mod - D15] (Eterna round: R97, puzzle: Exclusion 5)”, the “apparent KD of MS2 coat protein” value (input ligand: FMN 200 uM) was 0.177 µM and the “apparent KD of MS2 coat protein” value (input ligand: none) was 0.0575 µM.
With “ACAUGAGGAUCACCCAUGUCCGGCUGGUCUGUUUCGGUUGUCGAGGAUAUAGUUCGGUGUUCGCGCUAGAAGGUGGGAGCUGGC [Aenatbe mod 57] (Eterna round: R96, puzzle: Exclusion NG 3)” the “apparent KD of MS2 coat protein” value (input ligand: FMN 200 uM) was 0.143 µM, the “apparent KD of MS2 coat protein” value [2] was 0.108 µM and the “apparent KD of MS2 coat protein” value (input ligand: none) was 0.175 µM.
In the case of “GAUUAAUUAAUUAAUUAAUACAUGAGGAUCACCCAUGUAAUUUAAGAUCCUUAUACAAGCUUUGAUCUCGUCUUAUA [Stov1/5-A2] (Eterna round: R97, puzzle: Sensor, turn-off variant 1)”, the “apparent KD of MS2 coat protein” value (input ligand: FMN 200 uM) is reported as 0.163 µM and the “apparent KD of MS2 coat protein” value (input ligand: none) is reported as 0.159 µM.
With “AAACCACAUGAGGAUCACCCAUGUGAGGAUAUGAUACUAUGUACUUCGGUACAUAGUAUCAGAAGGCAUAUGAA [Ex1-3: 48] (puzzle: Exclusion 1)” the “apparent KD of MS2 coat protein” value [1] was 0.0244 µM.
In the case of “AGUAACUAUCACGAAAGUGAUAGUUACAAUAGCAAGUGAACAUGAGGAUCACCCAUGUCCUCAUUUGCUCGUCUUAU [Sensor 3 - 20] (puzzle: Sensor v3, turn-off variant 2)”, the “apparent KD of MS2 coat protein” value [3] is reported as 0.0161 µM, the “apparent KD of MS2 coat protein” value [1] is reported as 0.632 µM and the “apparent KD of MS2 coat protein” value [4] is reported as 0.0136 µM.
With “GCCAGAGCAGGAUAUUCAAUAUCACACAUGAGGAUCACCCAUGUCCGGCGAAAGCUGGAGGGAGAAGGGCUCUGGC [Fiskers Ex 5 - 14] (puzzle: Exclusion 5)” the “apparent KD of MS2 coat protein” value [1] was 0.0494 µM.
With “GCGAUAAACGAGGAUAUCGUAUCGGAAACGAUACGAGAAGGUGUAACAUGAGGAUCACCCAUGUUCCUCAACGC [Mat - Exclusion 6 - Eli Mod - D65] (puzzle: Exclusion 6)” the “apparent KD of MS2 coat protein” value [1] was 0.0363 µM.
For “ACGCCUCCUGUUAGGAUAUGCAUCGGGCUUCCGCAGCAGAAGGAACAUGAGGAUCACCCAUGUCAAAUAAAAUC [Raleed] (puzzle: Brourd's mod of Exclusion 4)”, the “apparent KD of MS2 coat protein” value [1] was 0.017 µM.
“ACAUGAGGAUCACCCAUGUCCGUCUGGUCUGUCUCGGCUGUCGAGGAUAUAGCUCGGUAUCCGCGCUAGAAGGCGGGAGUCGGU [Aenatbe mod 93] (Eterna round: R96, puzzle: Exclusion NG 3)” was tested, and the “apparent KD of MS2 coat protein” value (input ligand: FMN 200 uM) was 0.0736 µM, the “apparent KD of MS2 coat protein” value [2] was 0.0667 µM and the “apparent KD of MS2 coat protein” value (input ligand: none) was 0.0885 µM.
“CCGGAAAUGCAGGAUAUCGUAUCGGAUACGAUACGAGAAGGGUAUACAUGAGGAUCACCCAUGUGUCCUACCGG [Fiskers Ex 6 - 49] (puzzle: Exclusion 6)” was tested, and the “apparent KD of MS2 coat protein” value [1] was 0.0183 µM.
With “UUUUUCUGGCAAGGAUAUCCUGUGCGGUUCCGGCUCGUGUCUGUUACAUGAGGAUCACCCAUGUGGGAGAAGGUGCCUGUGGUU [Design 88] (Eterna round: R96, puzzle: Exclusion NG 2)” the “apparent KD of MS2 coat protein” value (input ligand: FMN 200 uM) was 0.0942 µM, the “apparent KD of MS2 coat protein” value [2] was 0.0269 µM and the “apparent KD of MS2 coat protein” value (input ligand: none) was 0.0353 µM.
For “AGCUAGUGCCGAGGAUAUACAUGAGGAUCACCCAUGUAGGCGUGAGGCUUUGUCUCACGCGAGAUGUAGAAGGCGGCGUUGGCA [JL ENG2 1.52] (Eterna round: R96, puzzle: Exclusion NG 2)”, the “apparent KD of MS2 coat protein” value (input ligand: FMN 200 uM) was 0.0605 µM, the “apparent KD of MS2 coat protein” value [2] was 0.0141 µM and the “apparent KD of MS2 coat protein” value (input ligand: none) was 0.0217 µM.
In the case of “UUCGUGCAGCUUUGCUGUACGCGUACAUGAGGAUCACCCAUGUAGGAUAUGGUAGGCUUUGCUUACUAGAAGGAUAGUGUGAUC [JL EXNG3 1.30] (Eterna round: R96, puzzle: Exclusion NG 3)”, the “apparent KD of MS2 coat protein” value (input ligand: FMN 200 uM) is reported as 0.137 µM, the “apparent KD of MS2 coat protein” value [2] is reported as 0.123 µM and the “apparent KD of MS2 coat protein” value (input ligand: none) is reported as 0.0887 µM.
For “GCAGCAACUCUUACUAACUAAACAUGAGGAUCACCCAUGUCUCAGGAUAUGGUCUGGAUUACAGGCCAGAAGGGAGAAAGCUGC [Eli exng3 - 038] (Eterna round: R96, puzzle: Exclusion NG 3)”, the “apparent KD of MS2 coat protein” value (input ligand: FMN 200 uM) was 0.0156 µM, the “apparent KD of MS2 coat protein” value [2] was 0.0112 µM and the “apparent KD of MS2 coat protein” value (input ligand: none) was 0.0169 µM.
In the case of “AAUUCGCAAGCGAGAUCCCACAUGAGGAUCACCCAUGUGCUCGUCUUAUAAGGUACUGUGACAAAAGUCACGGUACC [Mat - Sensor, turn-off var - Eli Mod - D84] (Eterna round: R97, puzzle: Sensor, turn-off variant 1)”, the “apparent KD of MS2 coat protein” value (input ligand: FMN 200 uM) is reported as 0.0143 µM and the “apparent KD of MS2 coat protein” value (input ligand: none) is reported as 0.0132 µM.
In the case of “GCAGGAUAAGUGAGGAUAUACCUCUGGAUACAGAGGUAGAAGGCACAUGAGGAUCACCCAUGUUACUCACCUGC [Fiskers BMX 4 - 76] (puzzle: Brourd's mod of Exclusion 4)”, the “apparent KD of MS2 coat protein” value [1] is reported as 0.0109 µM.
In the case of “UUUUACAAGCCAGAUCCUCACAUGAGGAUCACCCAUGUGCUCGUCUGUUUUUGUACUAUCACGUUUGUGAUAGUGUU [Level Boss var2-09] (puzzle: Sensor v3, turn-off variant 1)”, the “apparent KD of MS2 coat protein” value [3] is reported as 0.189 µM, the “apparent KD of MS2 coat protein” value [1] is reported as 0.0146 µM and the “apparent KD of MS2 coat protein” value [4] is reported as 0.189 µM.
With “UAUUUGCAAGCGAGAUCCCACAUGAGGAUCACCCAUGUUCUUGGAAAGUACAGAAUUACUGUACAAGCUCGUCUUCU [mod-Eli/newD-last] (Eterna round: R97, puzzle: Sensor, turn-off variant 1)” the “apparent KD of MS2 coat protein” value (input ligand: FMN 200 uM) was 0.0189 µM and the “apparent KD of MS2 coat protein” value (input ligand: none) was 0.0204 µM.
For “UACUACGCAGGAUAUACAUGAGGAUCACCCAUGUGUCUGCGAUAGGCACGUGAUAUCCGUAGAAGGGUGUAGAU [Exclusion 3 - Oddities v.1] (puzzle: Exclusion 3)”, the “apparent KD of MS2 coat protein” value [1] was 0.0307 µM.
“AAACAGGGAGGAUAUACAUAGAUCCUCUAACCUAAUUGGUCACAUGAGGAUCACCCAUGUAGAAGGCCCUUAGG [Enquanes] (puzzle: Exclusion 2)” was tested, and the “apparent KD of MS2 coat protein” value [1] was 0.0136 µM.
